Positions count from the first letter of the chain named.
B1: 4P-85 (VHH)
VHH: QVQLVESGGGLVQAGGSLRLSCAVSGRTVSTYGMAWFRQTPGKKERDFVATITRSEGTTFYADSVKGRFTISRDNAKNTVYLQMNSLKIEDTAVYYCAVRRDSSWGYSRDLFEYDDWGQGTQVTVSS
B2: 4P-61 (VHH)
VHH: QVQLVESGGGLVQAGGSLRLSCAASGSTFNTRNIAWYRQAPGKQRELVAGITNAGATIYADSVKGRFTISRDNAKNTMYLQIDSLKPEDTAVYYCNRIVGTYPWGQGTQVTVSS
B3: 4P-21 (VHH)
VHH: HVQLVESGGGLAQAGGNLRLSCAASGGTFSDYAMGWFRRPPGKEREFVAAISRGGSTFYADSVKGRFTISRDNAKNTVYLQMTSLKPEDTAVYYCAADRSPLFFGVPRSHGEYDYWGQGTQVTVSS
B4: 4P-32 (VHH)
VHH: DVQLVESGGGLVQAGGSLRLTCAASGRTFSSDTMDMGWFRQAPGKERQFVAADAWNDGRTYYADSVKGRFTISRDNAKNTLYLQMNSLKPEDTAVYYCAADTYSNYEKDYSWGYWGQGTQVTVSS
B5: 4P-56 (VHH)
VHH: QVQLVESGGGLVQAGGSLRLSCAASGRTDSISDMGWFRQAPGKEREFVAVVGWSGGGTDYAHSVKGRFTISRDNAKNTVYLQMNSLKPEDTAVYYCAVGSLRVGSFSVEYWGQGTQVTVSS
notes: class IV psNb
B6: 4P-17 (VHH)
VHH: HVQLVESGGGLVQAGASLRLSCAASGRTASNYVMGWFRQAAGKEREFVAHISWSGDETNYADSVRGRFIISRDNAENTVYLQMNSLKPEDTAVYYCAADRGYSLMYYSSREYTYWGQGTQVTVSS
B7: 4P-26 (VHH)
VHH: QVQLVESGGGLVQAGGSLRLSCAASGDTLRSYNMGWFRQAPGKEREFVAVISWTGVGTYYGDSVKGRFTISRDVIKNTLYLQMDSLKPEDTAIYYCAADSTTYRLHSAGSDYLYWGQGTQVTVSS
B8: 4P-28 (VHH)
VHH: QVQLVESGGGLVQAGGSLRLSCAASGRTFSHYPTGWFRQAPGKEREFVSTISESGTSTYYADSVKGRFTISRDNAKNSVYLQMNSLKPEDTALYYCAADTAGRTQYGSSWSTLDGFVYWGQGTQVTVSS
B9: 4P-76 (VHH)
VHH: EVQLVESGGGLVQAGDSLRLSCAASERTGINYAMGWFRQAPGKERDFVAAIGWNGSITKYAESVKGRFTLSRDDAMNTVSLQMNSLKPEDTAVYYCAARIGSIANLQYREYEFAYWGQGTQVTVSS
B10: 4P-19 (VHH)
VHH: HVQLVESGGGLVQAGGSLRLSCAASGRTVSSEFMGWFRQAPGKEREFVAAITWDGGSTYYTDSVKGRFTISRDNAKNTVYLQMNSLKPEDTAVYYCAADRSIFQSYYSAKYPNNYEYWGQGTQVTVSS
B11: 4P-12 (VHH)
VHH: DVQLVESGGGLVQAGGSLRLSCAASGRTFSSYTMGWFRQAPGKEREFVAVISSGRSTDYADSVKGRFTISRDNAKNTVYLQMNSLKPEDTAVYYCAADQAPLRFSYSLSRDEYDYWGQGTQVTVSS
B12: 5p-17 (VHH)
VHH: B11 VHH with D1Q, L20V, T28S, S31D, T33A, G35A, A40S, S52T, A100T, E112K
B13: 4P-74 (VHH)
VHH: HVQLVESGGGLVQAGGSLRLSCATSGRTFSTYRMSWFRQAPGKEREFVATIIWSVGSTHYADSVKGRFTISRDNAKNMVYLQMNSLKPEDTAVYYCAAQRSDSSSWGYEDDYDYWGQGTQVTVSS

Target: RBDSARS-CoV-2 (SARS-CoV-2 S protein residues 319-539, C-terminal His-tag) (SARS-CoV-2, UniProt P0DTC2 319-539)
Assay: ELISA

B1 and B2 cannot be ordered by IC50: < 10 nM for the first, < 10 nM for the second.

B3 and B4 cannot be ordered by IC50: < 10 nM for the first, < 10 nM for the second.

B5 and B6 cannot be ordered by IC50: < 10 nM for the first, < 10 nM for the second.

First: B7
Second: B8
The IC50 of the first is lower: < 10 nM for the first, 10 to 100 nM for the second.

First: B9
Second: B10
The IC50 of the first is higher: 10 to 100 nM for the first, < 10 nM for the second.

B11 and B12 cannot be ordered by IC50: < 10 nM for the first, < 10 nM for the second.

In the case of B13, the IC50 is reported as < 10 nM.

Target: RBDSARS-CoV (SARS-CoV S protein residues 318-510, C-terminal His-tag) (SARS-CoV, UniProt P59594 318-510)
Assay: ELISA

First: B1
Second: B2
The IC50 of the first is lower: < 10 nM for the first, 10 to 100 nM for the second.

First: B3
Second: B4
The IC50 of the first is lower: < 10 nM for the first, 1000 to 8000 nM for the second.

First: B5
Second: B6
The IC50 of the first is lower: 10 to 100 nM for the first, 1000 to 8000 nM for the second. The first is the more potent here.

Compared with B7, B8 is lower in IC50: > 8000 nM for the first, 1000 to 8000 nM for the second.

First: B9
Second: B10
The IC50 of the first is higher: 1000 to 8000 nM for the first, 100 to 1000 nM for the second.

First: B11
Second: B12
The IC50 of the first is higher: 10 to 100 nM for the first, < 10 nM for the second. The second is the more potent here.

For B13, the IC50 was > 8000 nM.

Reference: patent publication US20250002563A1 (UNIVERSITY OF PITTSBURGH OF THE COMMONWEALTH SYSTEM OF …, published 2025)
